Source: patent publication US20090196880A1 (VASGENE THERAPEUTICS, published 2009)

T1: EphB4 in whole cell lysate of 293 cells stably transfected with EphB4 (human, UniProt P54760 16-987)
T1 construct: Denatured protein from the lysate of transfected 293 cells (Western blot)
T1 sequence: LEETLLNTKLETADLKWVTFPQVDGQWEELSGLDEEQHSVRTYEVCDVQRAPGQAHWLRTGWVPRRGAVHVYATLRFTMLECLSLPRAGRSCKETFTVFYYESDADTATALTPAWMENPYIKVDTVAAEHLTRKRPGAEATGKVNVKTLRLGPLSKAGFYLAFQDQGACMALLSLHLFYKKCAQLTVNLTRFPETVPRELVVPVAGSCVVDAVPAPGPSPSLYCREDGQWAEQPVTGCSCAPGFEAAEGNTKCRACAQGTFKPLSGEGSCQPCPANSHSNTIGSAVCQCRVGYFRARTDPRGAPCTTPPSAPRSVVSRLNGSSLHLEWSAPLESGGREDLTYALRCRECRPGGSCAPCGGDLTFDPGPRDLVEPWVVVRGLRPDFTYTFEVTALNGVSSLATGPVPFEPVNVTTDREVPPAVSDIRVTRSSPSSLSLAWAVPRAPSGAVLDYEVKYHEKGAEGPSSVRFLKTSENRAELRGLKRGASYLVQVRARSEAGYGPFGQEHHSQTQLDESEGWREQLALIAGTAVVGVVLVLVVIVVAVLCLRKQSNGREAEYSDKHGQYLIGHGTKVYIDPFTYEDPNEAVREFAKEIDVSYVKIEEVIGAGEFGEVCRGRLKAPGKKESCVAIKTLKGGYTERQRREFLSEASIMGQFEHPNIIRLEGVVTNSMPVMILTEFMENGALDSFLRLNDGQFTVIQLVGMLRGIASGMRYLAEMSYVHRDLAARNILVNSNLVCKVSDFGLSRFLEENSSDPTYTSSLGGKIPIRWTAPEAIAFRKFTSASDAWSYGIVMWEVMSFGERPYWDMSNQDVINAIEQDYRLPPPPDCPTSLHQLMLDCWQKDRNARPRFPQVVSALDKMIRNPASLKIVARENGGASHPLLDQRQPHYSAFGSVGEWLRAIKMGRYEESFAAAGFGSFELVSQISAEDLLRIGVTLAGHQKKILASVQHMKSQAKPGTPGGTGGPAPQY


Target: T1, EphB4 in whole cell lysate of 293 cells …
Test: Western blot on lysate of EphB4-transfected 293 cells

| binding result | Binder |
| --- | --- |
| binds | mouse monoclonal antibody #47 (antibody, V domains shown, also called m47; Mu #47) VH: EVQLQQSGPELVKPGASVKISCKASGYTFTDYYMNWVKQSHGKGLEWIGDNNPNNGGTTYNQKFKGKATLTVDKSSSTAYMELRSLTSEDSAVYYCARGKYYGTSYGWYFDVWGTGTTVTVSS VL: DIQMTQSPASLSASVGETVTITCRISDNIDSYLAWFQQKQGKSPQLLVYDATVLADGVPSRFSGSGSGTQYSLKINSLQSEDAARYYCQVYYSIPWTFGGGTKLEIK |
| binds | mouse monoclonal antibody #131 (antibody, V domains shown, also called m131) VH: QVQLKQSGAELVKPGASVKISCKASGYTFTDYYINWVKQRPGQGLEWIGKIGPRIGTNYYNENFKGKATLTADISSNTAYMQLHTLTSEDSAVYFCARSEDYSGYVSYALDYWGQGTSVTVSS VL: NIVMTQSPKSMSMSVGERVTLSCKASENVDTYVSWYQQKPDQSPELLIYGASNRYTGVPDRFTGSGSATDFTLTISSVQAEDLADYHCGQTYRYPFTFGGGTKLEIK |
